These results are taken from PMC5663475, “SAV1 promotes Hippo kinase activation through antagonizing the PP2A phosphatase STRIPAK” (eLife, 2017).

B1: Myc-SAV1 SARAH (residues 321–383) wild type [modified: 35S-methionine labelled; 35S-methionine labelled] [human] / GST-MST2 SARAH (residues 430–491) [human] (parent complex)
chain 1: ILKWELFQLADLDTYQGMLKLLFMKELEQIVKMYEAYRQALLTELENRKQRQQWYAQQHGKNF
chain 2: KVPQDGDFDFLKNLSLEELQMRLKALDPMMEREIEELRQRYTAKRQPILDAMDAKKRRQQNF

This experiment covers variants of B1. Nature of the experiment: GST pull-down of in vitro translated 35S-labeled Myc-SAV1 SARAH, quantified; read off a plot.
Take chain 1 ILKWELFQLADLDTYQGMLKLLFMKEAEQIVKMYEAYRQALLTELENRKQRQQWYAQQHGKNF [chain 1 L27A]: the ratio to parent was about 0.7.
The same measure for chain 1 ILKWELFQLADLDTYQGMLKLLFMKELEQIVKMYEAYRQALLTELENAKQRQQWYAQQHGKNF [chain 1 R48A]: about 0.03.
In the case of chain 1 ILKWELFQLADLDTYAGMLKLLFMKELEQIVKMYEAYRQALLTELENRKQRQQWYAQQHGKNF [chain 1 Q16A], the ratio to parent is about 0.4.
In the case of chain 1 ILKWELFQLADLDTYQGMLKLLFMKELEQIVKMYEAYRQAALTELENRKQRQQWYAQQHGKNF [chain 1 L41A], the ratio to parent is about 0.01.
In the case of chain 1 ILKWELFQLADLDTYQGMLKLLFMKALEQIVKMYEAYRQALLTELENRKQRQQWYAQQHGKNF [chain 1 E26A] it was about 0.02.
Turning to chain 1 ILKWELFQLADLDTYQGMLKLLFMKELEQIVKMYEAYRQALATELENRKQRQQWYAQQHGKNF [chain 1 L42A], the ratio to parent is about 0.2.
The same measure for chain 1 ILKWELFQLADLDTYQGMLKLLFMKELEQIVKMYEAARQALLTELENRKQRQQWYAQQHGKNF [chain 1 Y37A]: about 0.04.
The same measure for chain 1 ILKWELFQLADLDTYQGMLKLLFMKELEQIVKMYEAYAQALLTELENRKQRQQWYAQQHGKNF [chain 1 R38A]: about 0.03; for chain 1 ILKWELFQLADLDTYQGMLKLLFMKELEQIVKMAEAYRQALLTELENRKQRQQWYAQQHGKNF [chain 1 Y34A]: about 0.36; for chain 1 ILKWELFQLADLDTYQGMLKLLFMKELEQIAKMYEAYRQALLTELENRKQRQQWYAQQHGKNF [chain 1 V31A]: about 0.53.
The same measure for chain 1 ILKWELFQLADLDTYQGMLKLLFMKELEQAVKMYEAYRQALLTELENRKQRQQWYAQQHGKNF [chain 1 I30A]: about 0.04; for chain 1 ILKWELFQLADLDAYQGMLKLLFMKELEQIVKMYEAYRQALLTELENRKQRQQWYAQQHGKNF [chain 1 T14A]: about 0.9.
chain 1 ILKWELFQLADLDTYQGMLKLLFMKELEQIVKMYEAYRQALLTEAENRKQRQQWYAQQHGKNF [chain 1 L45A]: the ratio to parent is about 0.06.
